Results: the nanobody polyreactivity screen of Harvey et al. (2022)

Experiment: yeast display, Sf9 membrane polyspecificity reagent, FACS + sequencing; frameworks hold sequencing errors
Procedure, shortened: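 Nanobodies came from a synthetic yeast display library in Saccharomyces cerevisiae BJ5465, induced with galactose for 36–48 hours and stained for 1 hour at 4 °C with 10% biotinylated, detergent-solubilized Sf9 membrane reagent. Cells were enriched on streptavidin microbeads and then FACS-sorted, with low and high (top ~1%) gates set on anti-HA fluorescence for expression and streptavidin fluorescence for reagent binding. Each polyreactivity label reflects the gate a clone came from. Genes were amplified by colony PCR, sequenced by MiSeq 2 × 250 and filtered by CDR length.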

Sequence	polyreactivity (PSR sort gate)
QVQLVESGGGLVQAGGSLRLSCAAYGITFSGYDMGWYRQAPGKERELVADITISTGSTYYADSVKGRFTISRDNAKNTVYLEMNSLKAEDTAVYYWNADSWFPDHFSYYGPYDYWGQGSQVTVSS	low polyreactivity
QVQLVESGGGLVQAGGSLRLSCAAYGITFSKNAKGWYRQAPGKERELVAAISRGGSSYYADSVKGRFTISRDNAKNTVYLQMNSLKPEDTAVYYCSAGWLRKYYYWGQGTQVTVSS	low polyreactivity
QVQLVESGGGLVQAGGSLRLSCAAYGLTLGRNAMGWYRQAPGKERELVAAITQSGGSTYYADSVKGRFTISRDNAKITVYLQMNSLKPEDTAVFYGAAQYSWGHYYTFDYWGQGTQVTVSS	low polyreactivity
QVQLVESGGGLVQAGGSLRLSCAAYGNTFYRNAMGWYRQAPGKERELVAAITFSTGRTYYADSVKGRFTISRDNAKNTVYLQLNSLKPEDTAVYYCAAFYRGGDYWGQGTQVTVSS	high polyreactivity
QVQLVESGGGLVQAGGSLRLSCAAYGRIFDGNAMGWYRQAPGKERELVAAITSRGGRTYYADSVKGRFTISRDNAKNTVYLQMNSLKPEDTAVYYCNTRVKSYGHYDYWGQGTQVTVSS	high polyreactivity
QVQLVESGGGLVQAGGSLRLSCAAYGRIFGYYAMGWYRQAPGKEREFVATISRSGGRTYYADSVKGRFTISRDNAKNTVYLQMNSLKPEDTAVYYCAKGVQFGSKTTFWYDYWGQGTQVTVSS	high polyreactivity
QVQLVESGGGLVQAGGSLRLSCAAYGRTFGLYAMGWYRQAPGKERELVAAISWGGGRTYYADSVKGRFTISRDNAKHTVYLQMNSLKPEDTAVFYCNAVYSPRYYVGGYDYWGQGTQVTVSS	high polyreactivity
QVQLVESGGGLVQAGGSLRLSCAAYGRTFPLYAMGWYRQAPGKEREFVAAISSRGGRTYYADSVKGRFTISRDNEKNTVYLQMNSLKPEDTAVYYCNARYVHDGFDYWGQGTQVTVSS	high polyreactivity
QVQLVESGGGLVQAGGSLRLSCAAYGRTLGDYAMGWYRQAPGKERELVAAISSGGNTYYADSVKGRFTISRDNAKNTVYLQMKSVKPEDSAVYYCDAAHYYRSYWGQGTQETVSS	high polyreactivity
QVQLVESGGGLVQAGGSLRLSCAAYGSIFAHYAMGWYRQAPGKERELVARISWSGGSTYYADSVKGRFSISLDNAKNTVYLQMNSLKPEDTAVYYCSADLTSKSSPQGYRYDYWGQGTQVTVSS	low polyreactivity
QVQLVESGGGLVQAGGSLRLSCAAYGSTFGGNARGWYIQAPGKERELVAVISKRGGSTYYADSVKGRFTISRDYEKNTVYLQINSLKPEDTAVYYCAATYSRYWSPTYDYWGQGTQVTVSS	high polyreactivity
QVQLVESGGGLVQAGGSLRLSCAAYGSTFKSYAMGWYSQAPGKDRELVAAITHRGSTYYADSVKGRFTISRDNAKNTVYLQMNSLKPEDTAVYYCNVRRIGNGRRVDYWGQGTQVTVSS	high polyreactivity
QVQLVESGGGLVQAGGSLRLSCAAYGSTFTRYTMGWYRQAPGKDRELVASSTRTGSTNYADSVKGRFTISRDNAKNTVYLQMYSLKPEDTAVYYCAGGRYYSYRFSFGYWGQGTQVTVSS	high polyreactivity
QVQLVESGGGLVQAGGSLRLSCAAYGYIFDHYAMGWYRQAPGKERELVAAINWSGGRTYYADSVKGRFTISRDNAKNTVYLQMNSLKPEDTAVYYCAAGGVSENDYWGQGTQVTVSS	high polyreactivity
QVQLVESGGGLVQAGGSLRLSCAAYSYVMGWNRQAPGKERELVAAISQSGGSTYYADSVKGRFTISRDNPKNTVYLQMNSLKPEDTAVYYCAARREPYQYNQYYSWGQGTKVTVSS	high polyreactivity
QVQLVESGGGLVQAGGSLRLSCAAYVRIIYDYAKGWYRQAPGKERELVAAISKGGGSTYYADSVKGRFTISRDNAKNTVYLQMNSLNPEDTAVYYCAASTSHTTDTRYDYLGQGTQVTVSS	low polyreactivity
QVQLVESGGGLVQAGGSLRLSCAAYYAMGWYRHAPGKERELVAAIDDGTSTNYADSVKGRFTISRDNAKNTVYLQMNSLKPEDTAVYYCNKLSEVTYYGSKFDYWGQGTQVTVSS	low polyreactivity
QVQLVESGGGLVQAGGSLRLSCADCGSIFSSNAKGWYRQEPGKERELVAAISRSACSTYYADSVKGRFTISRDIAKNTVYLQMNSLKQEDTAVYYCNGVTRLGTYDYWGQGSQVTVSS	high polyreactivity
QVQLVESGGGLVQAGGSLRLSCADSARILYHYAIGWYRQAHGKETELVAAITRGGGTNYADSVKGRFTISRDNAKNTVYLQMNSLKPEDTAVYYCNADRFIVTRSRRGDYWGQGTQVTVSS	low polyreactivity
QVQLVESGGGLVQAGGSLRLSCADSGFILSPNTMGWYRQAPGKERELVAAMSSDVSTYADSVTGRFTISRDNAKNTVYLQMNSLKPEDTAVYYCNADDFGYASYEYWGQGTQVTVSS	low polyreactivity
QVQLVESGGGLVQAGGSLRLSCADSGFILTYYAMGWYRQAPGKERELVAAISWSGGSTYYADSVKGRFTISRDNAKNTVYLQMNSLKPEDTAVYYCAAEKRYSSYDYWGQGTQVTVSS	high polyreactivity
